Source: publication PMC6108177 (Nature structural & molecular biology, 2017)

How the values were obtained:
[1] = target: Human TRF1 TRFH domain (residues 65–267) (human) (UniProt P54274); experiment: ITC
[2] = target: the molecule itself; experiment: crystal structure

| Kd [1] [µM] | Molecule | stoichiometry N [2] |
| --- | --- | --- |
| 5.6 | Human TERB1 TBM (TRF1-binding motif, residues 642–656) (from UniProt Q8NA31-1 642-656) (peptide) | – |
| – | Human TRF1 TRFH domain (residues 65–267) (domain or fragment, UniProt P54274 65-267, looked up) GLVAEAEAVAAGWMLDFLCLSLCRAFRDGRSEDFRRTRNSAEAIIHGLSSLTACQLRTIYICQFLTRIAAGKTLDAQFENDERITPLESALMIWGSIEKEHDKLHEEIQNLIKIQAIAVCMENGNFKEAEEVFERIFGDPNSHMPFKSKLLMIISQKDTFHSFFQHFSYNHMMEKIKSYVNYVLSEKSSTFLMKAAAKVVESK | 2 |
